From PMC4575908

Substrate: O=C(O)[C@H]1O[C@@H](Oc2ccc([N+](=O)[O-])cc2)[C@H](O)[C@@H](O)[C@@H]1O
Format: biochemical
Conditions: 37.0 °C

B1: SaGUS (Streptococcus agalactiae 2603V/R) (protein)
chain: MLYPLLTKTRNTYDLGGIWNFKLGEHNPNELLPSDEVMVIPTSFNDLMVSKEKRDYIGDFWYEKVIEVPKVSEDEEMVLRFGSVTHQAKIYVDGVLVGEHKGGFTPFEVLVPECKYNNEKIKVSICANNVLDYTTLPVGNYSEIIQEDGSIKKKVRENFDFFNYAGVHRPLKLMIRPKNHIFDITITSRLSDDLQSADLHFLVETNQKVDEVRISVFDEDNKLVGETKDSRLFLSDVHLWEVLNAYLYTARVEIFVDNQLQDVYEENFGLREIEVTNGQFLLNRKPIYFKGFGKHEDTFINGRGLNEAANLMDLNLLKDMGANSFRTSHYPYSEEMMRLADRMGVLVIDEVPAVGLFQNFNASLDLSPKDNGTWNLMQTKAAHEQAIQELVKRDKNHPSVVMWVVANEPASHEAGAHDYFEPLVKLYKDLDPQKRPVTLVNILMATPDRDQVMDLVDVVCLNRYYGWYVDHGDLTNAEVGIRKELLEWQDKFPDKPIIITEYGADTLPGLHSTWNIPYTEEFQCDFYEMSHRVFDGIPNLVGEQVWNFADFETNLMILRVQGNHKGLFSRNRQPKQVVKEFKKRWMTIPHYHNKKNSVK
  Km: 0.36 ± 0.03 mM
  kcat: 80 ± 2 s⁻¹
  kcat/Km: 224000 M⁻¹ s⁻¹
